T1: EndoU catalytic domain (human, UniProt P21128 135-410)
T1 sequence: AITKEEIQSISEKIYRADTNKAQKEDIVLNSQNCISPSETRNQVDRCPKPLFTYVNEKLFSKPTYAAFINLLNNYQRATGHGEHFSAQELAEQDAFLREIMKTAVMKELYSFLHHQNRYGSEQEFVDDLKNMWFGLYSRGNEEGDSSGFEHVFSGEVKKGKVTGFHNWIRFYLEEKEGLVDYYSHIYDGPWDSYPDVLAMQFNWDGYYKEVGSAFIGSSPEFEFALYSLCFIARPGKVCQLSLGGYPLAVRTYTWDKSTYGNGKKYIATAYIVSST


Target: T1, EndoU catalytic domain
Assay: NMR; Ca2+ (calcium-activated EndoU); NMR: 10 mM Tris pH 7, 50 mM NaCl, 1 mM TCEP, 10% D2O, 35 C; EndoU 350 uM (Fig. 4)
Conditions: protein: recombinant; tags: GB1-His6 removed by TEV; residual N-terminal GGSEFA; single strand

Binder	binding result
AAGUCC (XNA, 2'-F at all nucleotides (non-cleavable)) [2'-fluorinated RNA AAGUCC]	binds
UUUUUU (XNA, 2'-F) [2'F (U)6 RNA]	binds
